Where a SMILES comes first, the peptide text is derived from it. [ ]: non-standard residue; d: D form. The star is where a group is joined. Dolaproine = CO[C@@H]([C@@H]1CCCN1)[C@@H](C)C(=O)O; Dil = CC[C@H](C)[C@H](NC)[C@@H](CC(=O)O)OC; X1 = C[C@@H](N*)[C@@H](O)c1ccccc1; NMeV = CN[C@H](C(=O)O)C(C)C
Legend:
[1] = system: CD20−/CXCR4+ Jurkat cells; experiment: Killing activity of ADC on co-cultured Ramos/Jurkat cells: Jurkat count; format: cell-based; settings: co-cultured Ramos/Jurkat 1:1, 72 hours, flow cytometer count
Method: (§1) 6.2 Analysis of Killing Activity of ADC on Co-Cultured Ramos/Jurkat Cells
(§2) Ramos and Jurkat cells (RPMI 1640 medium containing 10% FBS and 1% double antibody) were cultured, respectively. Jurkat cells were stained with calcein-AM (eBioscience) and Ramos cells stained with Celltracker Organge CMTMR (Invitrogen) according to protocols provided by the manufacturer, followed by washed for three times with PBS. After cell count, Ramos and Jurkat cells were mixed at a ratio of 1:1, and 2×10^4 Ramos/Jurkat mixed cells were added to a U-shaped bottom 96-well plate (90 ul/well). 10 ul of SYN-AC, RTX or RXT-AC with different concentrations was added to the 96-well plate above, and incubated at 37° C., 5% CO2 for 72 hours. The numbers of the Ramos and Jurkat cells were counted with a flow cytometer (BD LSR II with a BD high throughput Sampler (HTS)).

CD20+/CXCR4+ Ramos cells = experiment: Killing activity of ADC on co-cultured Ramos/Jurkat cells: Ramos count; format: cell-based
Method: as §1, §2

CXCR4 [2] = target: T1, CXCR4 (UniProt P61073 1-352, limits assumed); experiment: cell-based or functional assay
T1 sequence (P61073 whole entry): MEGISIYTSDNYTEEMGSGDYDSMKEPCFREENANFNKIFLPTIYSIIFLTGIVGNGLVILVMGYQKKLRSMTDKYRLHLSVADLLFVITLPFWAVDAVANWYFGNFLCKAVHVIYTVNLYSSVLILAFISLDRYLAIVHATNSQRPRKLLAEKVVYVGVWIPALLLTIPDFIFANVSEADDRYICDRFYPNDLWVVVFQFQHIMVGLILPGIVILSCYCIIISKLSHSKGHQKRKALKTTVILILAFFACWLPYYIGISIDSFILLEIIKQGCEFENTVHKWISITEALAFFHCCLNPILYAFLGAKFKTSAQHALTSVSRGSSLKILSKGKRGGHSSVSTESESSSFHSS

CXCR4 [3] = target: T1, CXCR4; experiment: flow cytometry on CXCR4+/CD20- Jurkat cells
Method: (§3) The CXCR4⁺/CD20⁻ Jurkat cells and CXCR4^dim/CD20⁺JAB cells were cultured in RPMI 1640 medium containing 10% FBS and […]). Cells were collected by centrifugation, and washed with PBS for 3-4 times. After blocked by 1% BSA (in PBS) at 4° C. for 1 h, the cells were resuspended with PBS with 1% BSA at a density of 5×10⁵/100 μL. […] After being washed with PBS with 1% BSA for 3 times, cells were resuspended with PBS/1% BSA containing a PE-anti-human Fc antibody (Clone HP6017, Biolegend, CA), and incubated at 4° C. for 2 hours. Then an LSR II flow cytometer (Becton Dickinson, N.J.) was applied, and FlowJo software (TreeStar, OR) was used for analysis. Data was analyzed by nonlinear regression using a log (agonist) vs. response model in Prizm Graphpad software.

CXCR4 [4] = target: T1, CXCR4; experiment: flow cytometry on CXCR4+/CD20- Jurkat cells, PE-anti-human Fc detection
Method: as §3

CD20 = target: T2, CD20 (UniProt P11836 1-297, limits assumed); experiment: cell-based or functional assay
T2 sequence (looked up): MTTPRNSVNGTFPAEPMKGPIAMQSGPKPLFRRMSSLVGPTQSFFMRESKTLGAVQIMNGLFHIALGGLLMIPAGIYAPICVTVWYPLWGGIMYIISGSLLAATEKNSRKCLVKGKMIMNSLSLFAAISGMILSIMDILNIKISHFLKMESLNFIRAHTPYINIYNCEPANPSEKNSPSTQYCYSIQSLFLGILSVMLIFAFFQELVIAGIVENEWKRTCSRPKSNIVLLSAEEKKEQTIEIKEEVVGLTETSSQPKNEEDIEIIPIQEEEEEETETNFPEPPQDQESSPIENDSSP

## CC[C@H](C)[C@@H]([C@@H](CC(=O)N1CCC[C@H]1[C@H](OC)[C@@H](C)C(=O)N[C@H](C)[C@@H](O)c1ccccc1)OC)N(C)C(=O)[C@@H](NC(=O)[C@@H](NC)C(C)C)C(C)C [MMAE, monomethylalistatin E, reference compound] (H-[NMeV]V[Dil][Dolaproine]-X1)
[1]
  EC50: 24.5 ± 6.8 nM
CD20+/CXCR4+ Ramos cells; co-cultured Jurkat and Ramos cells, selectivity Jurkat vs Ramos
  TI (therapeutic index): 2.7
CD20+/CXCR4+ Ramos cells; co-cultured Ramos/Jurkat 1:1, 72 hours, flow cytometer count
  EC50: 9.1 ± 3.8 nM

B1: SYN-AC-MMAE (SYN-AC conjugated with NHS-PEG4-MMAE) (other)
heavy: QVTLRESGPALVKPTQTLTLTCTFSGFSLSTSGMSVGWIRQPPGKALEWLADIWWDDKKDYNPSLKSRLTISKDTSKNQVVLKVTNMDPADTATYYCARSMITNWYFDVWGAGTTVTVSSASTKGPSVFPLAPSSKSTSGGTAALGCLVKDYFPEPVTVSWNSGALTSGVHTFPAVLQSSGLYSLSSVVTVPSSSLGTQTYICNVNHKPSNTKVDKKVEPKSCDKTHTCPPCPAPPVAGPSVFLFPPKPKDTLMISRTPEVTCVVVDVSHEDPEVKFNWYVDGVEVHNAKTKPREEQYNSTYRVVSVLTVLHQDWLNGKEYKCKVSNKGLPSSIEKTISKAKGQPREPQVYTLPPSRDELTKNQVSLTCLVKGFYPSDIAVEWESNGQPENNYKTTPPVLDSDGSFFLYSKLTVDKSRWQQGNVFSCSVMHEALHNHYTQKSLSLSPGK
light: DIQMTQSPSTLSASVGDRVTITCKCQLSVGYMHWYQQKPGKAPKLLIYDTSKLASGVPSRFSGSGSGTEFTLTISSLQPDDFATYYCFQGSGYPFTFGGGTKLEIKRTVAAPSVFIFPPSDEQLKSGTASVVCLLNNFYPREAKVQWKVDNALQSGNSQESVTEQDSGGSGAKLAALKAKLAALKGGGGSYRKCRGGRRWCYQKGGGGSELAALEAELAALEAGGSGDSTYSLSSTLTLSKADYEKHKVYACEVTHQGLSSPVTKSFNRGEC
modifications: conjugated with NHS-PEG4-MMAE, 0 to 2 per light chain by MS; sites not stated; conjugated with NHS-PEG4-MMAE, 0 to 2 per heavy chain by MS; sites not stated
CXCR4 [2]
  EC50 (nM), killing of Jurkat cells in co-cultured Ramos/Jurkat cells, 72 h: 21 nM
  EC50 (nM), killing of Ramos cells in co-cultured Ramos/Jurkat cells, 72 h: 12.6 nM

B2: SYN-AC (Synagis, anti-RSV, with the CXCR4 antagonistic peptide inserted into the constant region of the light chain) (bispecific antibody, human IgG1, kappa)
heavy: B1 heavy
light: B1 light
notes: hIgG1 Fc with E233P/L234V/L235A/deltaG236+A327G/A330S/P331S
CXCR4 [3]
  binding result: binds

B3: RTX (Rituxan, anti-CD20 antibody) (antibody, V domains shown)
VH: QVQLQQPGAELVKPGASVKMSCKASGYTFTSYNMHWVKQTPGRGLEWIGAIYPGNGDTSYNQKFKGKATLTADKSSSTAYMQLSSLTSEDSAVYYCARSTYYGGDWYFNVWGAGTTVTVSA
VL: QIVLSQSPAILSASPGEKVTMTCRASSSVSYIHWFQQKPGSSPKPWIYATSNLASGVPVRFSGSGSGTSYSLTISRVEAEDAATYYCQQWTSNPPTFGGGTKLEIKR
notes: Rituxan Fab heavy chain cloned into pFuse-hIgG1-Fc carrying E233P/L234V/L235A/deltaG236+A327G/A330S/P331S; expressed in HEK293
CXCR4 [4]
  binding result: no binding

B4: RTX-MMAE (RTX conjugated with NHS-PEG4-MMAE) (other)
heavy: QVQLQQPGAELVKPGASVKMSCKASGYTFTSYNMHWVKQTPGRGLEWIGAIYPGNGDTSYNQKFKGKATLTADKSSSTAYMQLSSLTSEDSAVYYCARSTYYGGDWYFNVWGAGTTVTVSAASTKGPSVFPLAPSSKSTSGGTAALGCLVKDYFPEPVTVSWNSGALTSGVHTFPAVLQSSGLYSLSSVVTVPSSSLGTQTYICNVNHKPSNTKVDKKVEPKSCDKTHTCPPCPAPPVAGPSVFLFPPKPKDTLMISRTPEVTCVVVDVSHEDPEVKFNWYVDGVEVHNAKTKPREEQYNSTYRVVSVLTVLHQDWLNGKEYKCKVSNKGLPSSIEKTISKAKGQPREPQVYTLPPSRDELTKNQVSLTCLVKGFYPSDIAVEWESNGQPENNYKTTPPVLDSDGSFFLYSKLTVDKSRWQQGNVFSCSVMHEALHNHYTQKSLSLSPGK
light: QIVLSQSPAILSASPGEKVTMTCRASSSVSYIHWFQQKPGSSPKPWIYATSNLASGVPVRFSGSGSGTSYSLTISRVEAEDAATYYCQQWTSNPPTFGGGTKLEIKRTVAAPSVFIFPPSDEQLKSGTASVVCLLNNFYPREAKVQWKVDNALQSGNSQESVTEQDSKDSTYSLSSTLTLSKADYEKHKVYACEVTHQGLSSPVTKSFNRGEC
modifications: conjugated with NHS-PEG4-MMAE, 0 to 2 per light chain by MS; sites not stated; conjugated with NHS-PEG4-MMAE, 0 to 2 per heavy chain by MS; sites not stated
CD20
  EC50 (nM), killing of Ramos cells in co-cultured Ramos/Jurkat cells, 72 h: 6 nM

B5: RTX-AC (Rituxan with the CXCR4 antagonistic peptide inserted into the constant region of the light chain) (bispecific antibody, human IgG1, kappa)
heavy: B4 heavy
light: QIVLSQSPAILSASPGEKVTMTCRASSSVSYIHWFQQKPGSSPKPWIYATSNLASGVPVRFSGSGSGTSYSLTISRVEAEDAATYYCQQWTSNPPTFGGGTKLEIKRTVAAPSVFIFPPSDEQLKSGTASVVCLLNNFYPREAKVQWKVDNALQSGNSQESVTEQDSGGSGAKLAALKAKLAALKGGGGSYRKCRGGRRWCYQKGGGGSELAALEAELAALEAGGSGDSTYSLSSTLTLSKADYEKHKVYACEVTHQGLSSPVTKSFNRGEC
notes: hIgG1 Fc with E233P/L234V/L235A/deltaG236+A327G/A330S/P331S; also called RXT-AC
CXCR4 [3]
  binding result: binds

B6: RTX-AC-MMAE (RTX-AC conjugated with NHS-PEG4-MMAE) (other)
heavy: B4 heavy
light: B5 light
modifications: conjugated with NHS-PEG4-MMAE, 0 to 2 per light chain by MS; sites not stated; conjugated with NHS-PEG4-MMAE, 0 to 3 per heavy chain by MS; sites not stated
CXCR4 [2]
  EC50 (nM), killing of Ramos cells in co-cultured Ramos/Jurkat cells, 72 h: 0.29 nM
CD20
  EC50 (nM), killing of Ramos cells in co-cultured Ramos/Jurkat cells, 72 h: 0.29 nM

From patent publication US20220185903A1, “Novel bispecific binding molecule and drug conjugate thereof” (priority 2019, published 2022)
